Laboratory results from the supplement of paper PMC11908140.

B1: library; numbered along this chain (parent)
chain: MRKPRAAVGSGHRKQAASQEGRQKHAKNNSQAKPSACDGLARQPEEVVLQASVSSYHLFRDVAEVTAFRGSLLSWYDQEKRDLPWRRRAEDEMDLDRRAYAVWVSEVMLQQTQVATVINYYTGWMQKWPTLQDLASASLEEVNQLWAGLGYYSRGRRLQEGARKVVEELGGHMPRTAETLQQLLPGVGRYTAGAIASIAFGQATGVVDGNVARVLCRVRAIGADPSSTLVSQQLWGLAQQLVDPARPGDFNQAAMELGATVCTPQRPLCSQCPVESLCRARQRVEQEQLLASGSLSGSPDVEECAPNTGQCHLCLPPSEPWDQTLGVVNFPRKASRKPPREESSATCVLEQPGALGAQILLVQRPNSGLLAGLWEFPSVTWEPSEQLQRKALLQELQRWAGPLPATHLRHLGEVVHTFSHIKLTYQVYGLALEGQTPVTTVPPGARWLTQEEFHTAAVSTAMKKVFRVYQGQQPGTCMGSKRSQVSSPCSRKKPRMGQQVLDNFFRSHISTDAHSLNSAAQ

Variants of: B1
Assay: 8OG:A repair function score (normalized; synonymous = 0, nonsense = -1) (normalized log-likelihood score); higher = more repair activity (WT-like)
Conditions: with 8OG:A DNA repair reporter (GFP) in HEK-293 MUTYH KO cells
Procedure, shortened: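 Lentiviral MUTYH cDNA NNN codon-scan libraries were expressed in MUTYH knockout HEK-293 cells with 10 pg/ml doxycycline, and the cells received an 8OG:A GFP repair reporter together with mCherry. At 72 h, viable mCherry+ cells went into GFP+ (repair) or GFP− bins, three replicates per tile, before tile amplicons were sequenced. A repair function score was then built from per-tile Rosace fitness scores, anchored on the synonymous and nonsense distributions. Synonymous medians sat at 0 and nonsense at -1, and variants under 300 counts per million at the start were left out.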
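Note: cells sorted at 72 h after reporter transfection.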

First: MRKPRAAVGSGHRKQAASQEGRQKHAKNNSQAKPSACDGLARQPEEVVLQASVSSYHLFRDVAEVTAFRGSLLSWYDQEKRDLPWRRRAEDEMDLDRRAYAVWVSEVMLQQTQVATVINYYTGWMQKWPTLQDLASASLEEVNQLWAGLGYYSRGRRLQEGARKVVEELGGHMPRTAETLQQLLPGVGRYTAGAIASIAFGQATGVVDGNVARVLCRVRAIGADPSSTLVSQQLWGLAQQLVDPARPGDFNQAAMELGATVCTCQRPLCSQCPVESLCRARQRVEQEQLLASGSLSGSPDVEECAPNTGQCHLCLPPSEPWDQTLGVVNFPRKASRKPPREESSATCVLEQPGALGAQILLVQRPNSGLLAGLWEFPSVTWEPSEQLQRKALLQELQRWAGPLPATHLRHLGEVVHTFSHIKLTYQVYGLALEGQTPVTTVPPGARWLTQEEFHTAAVSTAMKKVFRVYQGQQPGTCMGSKRSQVSSPCSRKKPRMGQQVLDNFFRSHISTDAHSLNSAAQ [P264C]
Second: MRKPRAAVGSGHRKQAASQEGRQKHAKNNSQAKPSACDGLARQPEEVVLQASVSSYHLFRDVAEVTAFRGSLLSWYDQEKRDLPWRRRAEDEMDLDRRAYAVWVSEVMLQQTQVATVINYYTGWMQKWPTLQDLASASLEEVNQLWAGLGYYSRGRRLQEGARKVVEELGGHMPRTAETLQQLLPGVGRYTAGAIASIAFGQATGVVDGNVARVLCRVRAIGADPSSTLVSQQLWGLAQQLVDPARPGDFNQAAMELGATVCTAQRPLCSQCPVESLCRARQRVEQEQLLASGSLSGSPDVEECAPNTGQCHLCLPPSEPWDQTLGVVNFPRKASRKPPREESSATCVLEQPGALGAQILLVQRPNSGLLAGLWEFPSVTWEPSEQLQRKALLQELQRWAGPLPATHLRHLGEVVHTFSHIKLTYQVYGLALEGQTPVTTVPPGARWLTQEEFHTAAVSTAMKKVFRVYQGQQPGTCMGSKRSQVSSPCSRKKPRMGQQVLDNFFRSHISTDAHSLNSAAQ [P264A]
The “8OG:A repair function score” value of the first is lower: -0.102 for the first, -0.0364 for the second.

First: MRKPRAAVGSGHRKQAASQEGRQKHAKNNSQAKPSACDGLARQPEEVVLQASVSSYHLFRDVAEVTAFRGSLLSWYDQEKRDLPWRRRAEDEMDLDRRAYAVWVSEVMLQQTQVATVINYYTGWMQKWPTLQDLASASLEEVNQLWAGLGYYSRGRRLQEGARKVVEELGGHMPRTAETLQQLLPGVGRYTAGAIASIAFGQATGVVDGNVARVLCRVRAIGADPSSTLVSQQLWGLAQQLVDPARPGDFNQAAMELGATVCYPQRPLCSQCPVESLCRARQRVEQEQLLASGSLSGSPDVEECAPNTGQCHLCLPPSEPWDQTLGVVNFPRKASRKPPREESSATCVLEQPGALGAQILLVQRPNSGLLAGLWEFPSVTWEPSEQLQRKALLQELQRWAGPLPATHLRHLGEVVHTFSHIKLTYQVYGLALEGQTPVTTVPPGARWLTQEEFHTAAVSTAMKKVFRVYQGQQPGTCMGSKRSQVSSPCSRKKPRMGQQVLDNFFRSHISTDAHSLNSAAQ [T263Y]
Second: MRKPRAAVGSGHRKQAASQEGRQKHAKNNSQAKPSACDGLARQPEEVVLQASVSSYHLFRDVAEVTAFRGSLLSWYDQEKRDLPWRRRAEDEMDLDRRAYAVWVSEVMLQQTQVATVINYYTGWMQKWPTLQDLASASLEEVNQLWAGLGYYSRGRRLQEGARKVVEELGGHMPRTAETLQQLLPGVGRYTAGAIASIAFGQATGVVDGNVARVLCRVRAIGADPSSTLVSQQLWGLAQQLVDPARPGDFNQAAMELGATVCNPQRPLCSQCPVESLCRARQRVEQEQLLASGSLSGSPDVEECAPNTGQCHLCLPPSEPWDQTLGVVNFPRKASRKPPREESSATCVLEQPGALGAQILLVQRPNSGLLAGLWEFPSVTWEPSEQLQRKALLQELQRWAGPLPATHLRHLGEVVHTFSHIKLTYQVYGLALEGQTPVTTVPPGARWLTQEEFHTAAVSTAMKKVFRVYQGQQPGTCMGSKRSQVSSPCSRKKPRMGQQVLDNFFRSHISTDAHSLNSAAQ [T263N]
The “8OG:A repair function score” value of the first is lower: -0.113 for the first, -0.0422 for the second.

Going from MRKPRAAVGSGHRKQAASQEGRQKHAKNNSQAKPSACDGLARQPEEVVLQASVSSYHLFRDVAEVTAFRGSLLSWYDQEKRDLPWRRRAEDEMDLDRRAYAVWVSEVMLQQTQVATVINYYTGWMQKWPTLQDLASASLEEVNQLWAGLGYYSRGRRLQEGARKVVEELGGHMPRTAETLQQLLPGVGRYTAGAIASIAFGQATGVVDGNVARVLCRVRAIGADPSSTLVSQQLWGLAQQLVDPARPGDFNQAAMELGATVCMPQRPLCSQCPVESLCRARQRVEQEQLLASGSLSGSPDVEECAPNTGQCHLCLPPSEPWDQTLGVVNFPRKASRKPPREESSATCVLEQPGALGAQILLVQRPNSGLLAGLWEFPSVTWEPSEQLQRKALLQELQRWAGPLPATHLRHLGEVVHTFSHIKLTYQVYGLALEGQTPVTTVPPGARWLTQEEFHTAAVSTAMKKVFRVYQGQQPGTCMGSKRSQVSSPCSRKKPRMGQQVLDNFFRSHISTDAHSLNSAAQ [T263M] to MRKPRAAVGSGHRKQAASQEGRQKHAKNNSQAKPSACDGLARQPEEVVLQASVSSYHLFRDVAEVTAFRGSLLSWYDQEKRDLPWRRRAEDEMDLDRRAYAVWVSEVMLQQTQVATVINYYTGWMQKWPTLQDLASASLEEVNQLWAGLGYYSRGRRLQEGARKVVEELGGHMPRTAETLQQLLPGVGRYTAGAIASIAFGQATGVVDGNVARVLCRVRAIGADPSSTLVSQQLWGLAQQLVDPARPGDFNQAAMELGATVCQPQRPLCSQCPVESLCRARQRVEQEQLLASGSLSGSPDVEECAPNTGQCHLCLPPSEPWDQTLGVVNFPRKASRKPPREESSATCVLEQPGALGAQILLVQRPNSGLLAGLWEFPSVTWEPSEQLQRKALLQELQRWAGPLPATHLRHLGEVVHTFSHIKLTYQVYGLALEGQTPVTTVPPGARWLTQEEFHTAAVSTAMKKVFRVYQGQQPGTCMGSKRSQVSSPCSRKKPRMGQQVLDNFFRSHISTDAHSLNSAAQ [T263Q], the “8OG:A repair function score” value falls from -0.0448 to -0.129.
